Assay results reported in paper PMC5500549, “DNA binding strength increases the processivity and activity of a Y-Family DNA polymerase” (Scientific Reports, 2017).

Assays:
[1] = system: SdbhA221S (Sulfolobus acidocaldarius (Dbh); Sso7d source organism not stated); assay: fluorescence titration (2AP); details: 10 mM Mg2+; 2-aminopurine at the primer terminus; 50 mM Tris acetate pH 7.5, 50 mM sodium acetate, 10 mM magnesium acetate, 5 mM DTT, 0.05% Tween 20, 25 °C; 100 nM 2AP-P/T, 0-1000 nM pol
[2] = system: SdbhT37F (Sulfolobus acidocaldarius (Dbh); Sso7d source organism not stated); assay: fluorescence titration (2AP); details: 2-aminopurine at the primer terminus; 50 mM Tris acetate pH 7.5, 50 mM sodium acetate, 10 mM magnesium acetate, 5 mM DTT, 0.05% Tween 20, 25 °C; 100 nM 2AP-P/T, 0-1000 nM pol
[3] = system: SdbhL250V (Sulfolobus acidocaldarius (Dbh); Sso7d source organism not stated); assay: fluorescence titration (2AP); details: 2-aminopurine at the primer terminus; 50 mM Tris acetate pH 7.5, 50 mM sodium acetate, 10 mM magnesium acetate, 5 mM DTT, 0.05% Tween 20, 25 °C; 100 nM 2AP-P/T, 0-1000 nM pol
[4] = system: SdbhM76I (Sulfolobus acidocaldarius (Dbh); Sso7d source organism not stated); assay: fluorescence titration (2AP); details: 2-aminopurine at the primer terminus; 50 mM Tris acetate pH 7.5, 50 mM sodium acetate, 10 mM magnesium acetate, 5 mM DTT, 0.05% Tween 20, 25 °C; 100 nM 2AP-P/T, 0-1000 nM pol
[5] = system: Dbh (WT) (Sulfolobus acidocaldarius); assay: fluorescence titration (2AP); details: 2-aminopurine at the primer terminus; 50 mM Tris acetate pH 7.5, 50 mM sodium acetate, 10 mM magnesium acetate, 5 mM DTT, 0.05% Tween 20, 25 °C; 100 nM 2AP-P/T, 0-1000 nM pol
[6] = system: Sdbh (Sso7d-Dbh fusion) (Sulfolobus acidocaldarius (Dbh); Sso7d source organism not stated); assay: fluorescence titration (2AP); details: 2-aminopurine at the primer terminus; 50 mM Tris acetate pH 7.5, 50 mM sodium acetate, 10 mM magnesium acetate, 5 mM DTT, 0.05% Tween 20, 25 °C; 100 nM 2AP-P/T, 0-1000 nM pol
[7] = system: SdbhI62V (Sulfolobus acidocaldarius (Dbh); Sso7d source organism not stated); assay: fluorescence titration (2AP); details: 2-aminopurine at the primer terminus; 50 mM Tris acetate pH 7.5, 50 mM sodium acetate, 10 mM magnesium acetate, 5 mM DTT, 0.05% Tween 20, 25 °C; 100 nM 2AP-P/T, 0-1000 nM pol
[8] = system: SdbhK337R (Sulfolobus acidocaldarius (Dbh); Sso7d source organism not stated); assay: fluorescence titration (2AP); details: 2-aminopurine at the primer terminus; 50 mM Tris acetate pH 7.5, 50 mM sodium acetate, 10 mM magnesium acetate, 5 mM DTT, 0.05% Tween 20, 25 °C; 100 nM 2AP-P/T, 0-1000 nM pol
[9] = system: SdbhY249I (Sulfolobus acidocaldarius (Dbh); Sso7d source organism not stated); assay: fluorescence titration (2AP); details: 2-aminopurine at the primer terminus; 50 mM Tris acetate pH 7.5, 50 mM sodium acetate, 10 mM magnesium acetate, 5 mM DTT, 0.05% Tween 20, 25 °C; 100 nM 2AP-P/T, 0-1000 nM pol
[10] = system: SdbhKSKIP241-245RVRKS (Sulfolobus acidocaldarius (Dbh); Sso7d source organism not stated); assay: fluorescence titration (2AP); details: 2-aminopurine at the primer terminus; 50 mM Tris acetate pH 7.5, 50 mM sodium acetate, 10 mM magnesium acetate, 5 mM DTT, 0.05% Tween 20, 25 °C; 100 nM 2AP-P/T, 0-1000 nM pol
[11] = substrate: Nc1ncnc2c1ncn2[C@H]1C[C@H](O)[C@@H](COP(=O)(O)OP(=O)(O)OP(=O)(O)O)O1; assay: steady-state single-nucleotide insertion, FAM-primer gel assay; assay type: biochemical, Sulfolobus acidocaldarius; details: opposite template G (incorrect, misinsertion), 1.0 μM primer-template, 20 nM pol, 5 mM MgCl2, 100 mM KCl, pH 7.5, 37 °C, apparent Km
Source text: (§1) steady-state single-nucleotide insertion, FAM-primer gel assay on Dbh (WTDbh)

[12] = substrate: Nc1ccn([C@H]2C[C@H](O)[C@@H](COP(=O)(O)OP(=O)(O)OP(=O)(O)O)O2)c(=O)n1; assay: as above; assay type: biochemical, Sulfolobus acidocaldarius; details: opposite template G (correct), 1.0 μM primer-template, 20 nM pol, 5 mM MgCl2, 100 mM KCl, pH 7.5, 37 °C, apparent Km
Source text: as §1

2AP-P/T primer-template showed a Kd [1] of 47.5 nM, a Kd [2] of 49.7 nM and a Kd [3] of 50.4 nM. The Kd [4] was 42.8 nM, the Kd [5] was 54.8 nM and the Kd [6] was 51.2 nM. The Kd [7] was 49.8 nM, the Kd [8] was 55.5 nM and the Kd [9] was 56.2 nM. For the same molecule, the Kd [10] was 34.8 nM.

B1: Dbh (WTDbh) (Sulfolobus acidocaldarius DSM 639) (protein)
chain: MIVIFVDFDYFFAQVEEVLNPQYKGKPLVVCVYSGRTKTSGAVATANYEARKLGVKAGMPIIKAMQIAPSAIYVPMRKPIYEAFSNRIMNLLNKHADKIEVASIDEAYLDVTNKVEGNFENGIELARKIKQEILEKEKITVTVGVAPNKILAKIIADKSKPNGLGVIRPTEVQDFLNELDIDEIPGIGSVLARRLNELGIQKLRDILSKNYNELEKITGKAKALYLLKLAQNKYSEPVENKSKIPHGRYLTLPYNTRDVKVILPYLKKAINEAYNKVNGIPMRITVIAIMEDLDILSKGKKFKHGISIDNAYKVAEDLLRELLVRDKRRNVRRIGVKLDNIIINKTNLSDFFDI
notes: synthetic gene, 6xHis tag (C-terminal by gene design, N-terminal by purification), expressed in E. coli BL21(DE3), Ni-NTA and Mono-S
B1 gave a Km [11] of 215.2 ± 18.7 µM, a Vmax [11] of 1.9e-05 µM/min and a Km [12] of 88.2 ± 12.0 µM. It also gave a Vmax [12] of 0.001 µM/min.
